Laboratory results as given in US20040254354A1 (INHIBITEX, published 2004).

B2: biotinylated recombinant region A from ClfA (other)
chain: SENSVTQSDSASNESKSNDSSSVSAAPKTDDTNVSDTKTSSNTNNGETSVAQNPAQQETTQSSSTNATTEETPVTGEATTTTTNQANTPATTQSSNTNAEELVNQTSNETTFNDTNTVSSVNSPQNSTNAENVSTTQDTSTEATPSNNESAPQSTDASNKDVVNQAVNTSAPRMRAFSLAAVAADAPAAGTDITNQLTNVTVGIDSGTTVYPHQAGYVKLNYGFSVPNSAVKGDTFKITVPKELNLNGVTSTAKVPPIMAGDQVLANGVIDSDGNVIYTFTDYVNTKDDVKATLTMPAYIDPENVKKTGNVTLATGIGSTTANKTVLVDYEKYGKFYNLSIKGTIDQIDKTNNTYRQTIYVNPSGDNVIAPVLTGNLKPNTDSNALIDQQNTSIKVYKVDNAADLSESYFVNPENFEDVTNSVNITFPNPNQYKVEFNTPDDQITTPYIVVVNGHIDPNSKGDLALRSTLYGYNSNIIWRSMSWDNEVAFNNGSGSGDGIDKPVVPEQPDEPGEIEPIPE
modifications: biotinylated (sites not given)
notes: domain: region A; also called ClfA region A; biotinylated ClfA

Key:
[1] = target: human fibrinogen (human) (UniProt P02671); experiment: cell-based or functional assay
[2] = target: B2; experiment: Western affinity blot of human fibrinogen (FIG. 22)
[3] = target: T1, human fibrinogen (human, UniProt P02671 20-629; P02675 31-491; P02679 27-437); experiment: direct ELISA, biotinylated region A on fibrinogen-coated plates
T1 construct: Bought (Chromogenix for ELISA and blots; Calbiochem, plasminogen free, for clumping assays); The plate adherence paragraphs say only 'fibrinogen'; also called solid phase fibrinogen; immobilized fibrinogen
T1 sequence 1: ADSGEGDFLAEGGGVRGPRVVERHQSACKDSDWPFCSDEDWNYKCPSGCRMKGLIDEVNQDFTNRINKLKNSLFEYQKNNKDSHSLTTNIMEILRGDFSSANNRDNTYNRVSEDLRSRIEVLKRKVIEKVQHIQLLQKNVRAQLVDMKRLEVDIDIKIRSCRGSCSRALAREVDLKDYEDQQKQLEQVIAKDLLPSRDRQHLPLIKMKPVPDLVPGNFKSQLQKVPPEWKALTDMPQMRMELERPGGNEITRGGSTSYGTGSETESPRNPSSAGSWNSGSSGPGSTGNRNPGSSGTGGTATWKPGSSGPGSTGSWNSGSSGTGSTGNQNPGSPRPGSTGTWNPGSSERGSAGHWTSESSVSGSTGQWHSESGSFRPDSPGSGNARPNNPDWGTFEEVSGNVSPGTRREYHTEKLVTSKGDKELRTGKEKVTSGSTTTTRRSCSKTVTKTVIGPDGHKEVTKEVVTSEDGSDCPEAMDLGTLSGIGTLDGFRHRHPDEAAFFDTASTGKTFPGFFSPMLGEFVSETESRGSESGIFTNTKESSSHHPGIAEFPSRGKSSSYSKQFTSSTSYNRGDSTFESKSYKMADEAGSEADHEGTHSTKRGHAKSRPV
T1 sequence 2: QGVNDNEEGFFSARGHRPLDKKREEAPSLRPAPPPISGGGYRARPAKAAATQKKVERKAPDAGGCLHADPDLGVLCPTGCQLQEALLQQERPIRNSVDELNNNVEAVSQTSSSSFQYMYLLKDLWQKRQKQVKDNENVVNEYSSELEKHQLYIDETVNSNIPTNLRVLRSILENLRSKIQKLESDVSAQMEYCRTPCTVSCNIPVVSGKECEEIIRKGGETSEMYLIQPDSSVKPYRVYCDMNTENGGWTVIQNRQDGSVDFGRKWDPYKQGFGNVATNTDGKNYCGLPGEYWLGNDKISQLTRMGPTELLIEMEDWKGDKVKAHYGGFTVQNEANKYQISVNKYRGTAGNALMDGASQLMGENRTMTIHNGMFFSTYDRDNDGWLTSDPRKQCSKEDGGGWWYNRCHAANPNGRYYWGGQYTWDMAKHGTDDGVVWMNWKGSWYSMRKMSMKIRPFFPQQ
T1 sequence 3: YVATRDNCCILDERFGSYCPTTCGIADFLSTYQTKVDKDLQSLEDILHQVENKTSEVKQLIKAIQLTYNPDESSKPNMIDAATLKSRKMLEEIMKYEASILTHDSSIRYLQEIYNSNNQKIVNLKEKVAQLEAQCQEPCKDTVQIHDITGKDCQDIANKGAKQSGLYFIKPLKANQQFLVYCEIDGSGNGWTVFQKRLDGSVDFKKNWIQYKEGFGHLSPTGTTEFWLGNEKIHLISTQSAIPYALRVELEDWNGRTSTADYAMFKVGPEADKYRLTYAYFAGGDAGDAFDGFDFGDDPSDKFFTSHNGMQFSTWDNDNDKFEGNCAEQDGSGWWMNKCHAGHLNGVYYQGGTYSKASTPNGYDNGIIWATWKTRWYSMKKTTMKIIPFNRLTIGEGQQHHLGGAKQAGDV

[4] = target: T2, bovine serum albumin (bovine, UniProt P02769 25-607); experiment: direct ELISA, biotinylated region A on BSA-coated plates
T2 construct: also called BSA
T2 sequence (P02769 25-607 limits assumed): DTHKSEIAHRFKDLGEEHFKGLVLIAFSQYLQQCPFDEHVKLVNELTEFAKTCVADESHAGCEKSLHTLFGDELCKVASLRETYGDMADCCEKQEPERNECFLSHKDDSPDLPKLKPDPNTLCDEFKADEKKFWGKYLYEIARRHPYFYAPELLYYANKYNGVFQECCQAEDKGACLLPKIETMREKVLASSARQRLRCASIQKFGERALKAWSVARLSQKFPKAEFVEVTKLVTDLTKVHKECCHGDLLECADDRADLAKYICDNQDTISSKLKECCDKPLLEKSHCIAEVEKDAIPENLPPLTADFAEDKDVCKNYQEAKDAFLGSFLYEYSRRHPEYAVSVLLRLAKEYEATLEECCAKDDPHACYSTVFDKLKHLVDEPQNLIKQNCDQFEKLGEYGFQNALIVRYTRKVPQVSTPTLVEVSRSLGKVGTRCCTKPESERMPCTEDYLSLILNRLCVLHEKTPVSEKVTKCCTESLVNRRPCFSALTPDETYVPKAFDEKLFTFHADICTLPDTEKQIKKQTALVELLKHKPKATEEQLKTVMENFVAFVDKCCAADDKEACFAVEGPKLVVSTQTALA

ClfA (native, on S. aureus Newman cells) (from UniProt Q53653 40-899)
Clumping titer, µg/ml fibrinogen; clfB mutant, exponential phase (µg/ml fibrinogen) [1]: 1.95 | Clumping titer, µg/ml fibrinogen; clfB mutant, stationary phase (µg/ml fibrinogen) [1]: 0.98 | Clumping titer, µg/ml fibrinogen; wild-type, stationary phase (µg/ml fibrinogen) [1]: 0.98

B1: γ chain of human fibrinogen (ligand)
chain: YVATRDNCCILDERFGSYCPTTCGIADFLSTYQTKVDKDLQSLEDILHQVENKTSEVKQLIKAIQLTYNPDESSKPNMIDAATLKSRKMLEEIMKYEASILTHDSSIRYLQEIYNSNNQKIVNLKEKVAQLEAQCQEPCKDTVQIHDITGKDCQDIANKGAKQSGLYFIKPLKANQQFLVYCEIDGSGNGWTVFQKRLDGSVDFKKNWIQYKEGFGHLSPTGTTEFWLGNEKIHLISTQSAIPYALRVELEDWNGRTSTADYAMFKVGPEADKYRLTYAYFAGGDAGDAFDGFDFGDDPSDKFFTSHNGMQFSTWDNDNDKFEGNCAEQDGSGWWMNKCHAGHLNGVYYQGGTYSKASTPNGYDNGIIWATWKTRWYSMKKTTMKIIPFNRLTIGEGQQHHLGGAKQAGDV
notes: also called gamma-chain of fibrinogen; y chain of fibrinogen
binding result [2]: binds

B2
binding at the highest concentration, relative to ClfB region A [3]: ~50 % greater than ClfB | binding result [4]: no binding
